Consider 1 molecule from US20030187223A1 (US Dept. of Health and Human Services, published 2003).

For the test, the target named is T1, bovine serum albumin (bovine, UniProt P02769 25-607).
T1 construct: Control coat in the ELISA; also called BSA
Briefly: ELISA, wells coated with BSA alone, Wg conditioned medium. The method, then:
First, an ELISA was used to measure sFRP-1 binding to Wg. Wells were coated with purified full-length sFRP-1 and then blocked with an excess of BSA. Subsequently, conditioned medium from S2HSWg cells expressing soluble Wg was incubated in the wells overnight at room temperature. As a control, aliquots of the same medium were incubated in wells treated with BSA but not sFRP-1. […] In contrast, little Wg was detected in wells that had not been treated with sFRP-1 , and no signal was observed when medium lacking Wg was used in the assay (FIG. 3, A and B).
sFRP-1/Wg ELISA Binding Assays—sFRP-1 diluted in 0.02% NaN₃/PBS was incubated in 96-well Falcon ELISA plates (300 ng/[…]) for 2 h at 37° C. After decanting, all wells were filled with 4% BSA/0.02% NaN₃/PBS and incubated for an additional 2 h at 37° C. Following five washes with TAPS (0.05% Tween-20 in 0.02% NaN₃/PBS), […] of Wg-containing or S2 control medium diluted in 1% BSA/TAPS were incubated overnight at room temperature. After five washes with TAPS, […] of Wg mAb diluted in 1% BSA/TAPS to a final concentration of […] was incubated in wells for 2 h at 37° C. Another five washes in TAPS were followed by a 2 h treatment at 37° C. with 1:400 dilution of conjugated alkaline phosphatase-goat anti-mouse IgG (Sigma). […] Absorbance at 405 nm was measured with an ELISA plate reader (Bio-Rad, Hercules, Calif.). […]

T1 sequence (P02769 25-607 limits assumed): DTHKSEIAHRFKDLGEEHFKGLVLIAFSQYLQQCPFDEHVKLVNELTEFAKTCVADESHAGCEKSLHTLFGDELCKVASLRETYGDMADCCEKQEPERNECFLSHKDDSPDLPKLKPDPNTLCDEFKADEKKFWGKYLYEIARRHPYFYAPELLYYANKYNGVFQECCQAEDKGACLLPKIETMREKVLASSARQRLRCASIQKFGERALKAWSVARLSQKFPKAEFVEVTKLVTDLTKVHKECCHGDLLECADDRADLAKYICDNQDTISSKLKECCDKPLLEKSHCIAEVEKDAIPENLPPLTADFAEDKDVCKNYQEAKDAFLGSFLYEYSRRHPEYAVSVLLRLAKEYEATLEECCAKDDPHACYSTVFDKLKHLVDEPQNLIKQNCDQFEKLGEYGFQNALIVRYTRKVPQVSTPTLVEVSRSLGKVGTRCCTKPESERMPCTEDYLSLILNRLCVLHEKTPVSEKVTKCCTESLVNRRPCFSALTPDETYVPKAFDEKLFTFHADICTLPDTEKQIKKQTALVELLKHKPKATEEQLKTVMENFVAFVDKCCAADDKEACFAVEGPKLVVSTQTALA

B1: Wingless (Wg), soluble, in conditioned medium of S2HSWg cells (ligand, Drosophila melanogaster, UniProt P09615 18-468, looked up)
chain: GSSLSQVEGKQKSGRGRGSMWWGIAKVGEPNNITPIMYMDPAIHSTLRRKQRRLVRDNPGVLGALVKGANLAISECQHQFRNRRWNCSTRNFSRGKNLFGKIVDRGCRETSFIYAITSAAVTHSIARACSEGTIESCTCDYSHQSRSPQANHQAGSVAGVRDWEWGGCSDNIGFGFKFSREFVDTGERGRNLREKMNLHNNEAGRAHVQAEMRQECKCHGMSGSCTVKTCWMRLANFRVIGDNLKARFDGATRVQVTNSLRATNALAPVSPNAAGSNSVGSNGLIIPQSGLVYGEEEERMLNDHMPDILLENSHPISKIHHPNMPSPNSLPQAGQRGGRNGRRQGRKHNRYHFQLNPHNPEHKPPGSKDLVYLEPSPSFCEKNLRQGILGTHGRQCNETSLGVDGCGLMCCGRGYRRDEVVVVERCACTFHWCCEVKCKLCRTKKVIYTCL
notes: Used as unpurified conditioned medium; also called Wg medium; Wg-containing medium
Regarding B1, the binding result was “no binding”.
